This note sets out measurements from the DeepSol protein solubility set.

This data set is described as follows: soluble on expression in E. coli; label from the status in PepcDB or PDB records.
As to “MSLGRNPPPAIGQFWHVTDLHLDPTYHITDDHTKVCASSKGANASNPGPFGDVLCDSPYQLILSAFDFIKNSGQEASFMIWTGDSPPHVPVPELSTDTVINVITNMTTTIQSLFPNLQVFPALGNHDYWPQDQLPVVTSKVYNAVANLWKPWLDEEAISTLRKGGFYSQKVTTNPNLRIISLNTNLYYGPNIMTLNKTDPANQFEWLESTLNNSQQNKEKVYIIAHVPVGYLPSSQNITAMREYYNEKLIDIFQKYSDVIAGQFYGHTHRDSIMVLSDKKGSPVNSLFVAPAVTPVKSVLEKQTNNPGIRLFQYDPRDYKLLDMLQYYLNLTEANLKGESIWKLEYILTQTYDIEDLQPESLYGLAKQFTILDSKQFIKYYNYFFVSYDSSVTCDKTCKAFQICAIMNLDNISYADCLKQLYIKHNYEGHHHHHH”, the “soluble on expression in E. coli” value is “soluble”.

As to “MLRTAGRDGLCRLSTYLEELEAVELKKFKLYLGTATELGEGKIPWGSMEKAGPLEMAQLLITHFGPEEAWRLALSTFERINRKDLWERGQREDLVRDTPPGGPSSLGNQSTCLLEVSLVTPRKDPQETYRDYVRRKFRLMEDRNARLGECVNLSHRYTRLLLVKEHSNPMQVQQQLLDTGRGHARTVGHQASPIKIETLFEPDEERPEPPRTVVMQGAAGIGKSMLAHKVMLDWADGKLFQGRFDYLFYINCREMNQSATECSMQDLIFSCWPEPSAPLQELIRVPERLLFIIDGFDELKPSFHDPQGPWCLCWEEKRPTELLLNSLIRKKLLPELSLLITTRPTALEKLHRLLEHPRHVEILGFSEAERKEYFYKYFHNAEQAGQVFNYVRDNEPLFTMCFVPLVCWVVCTCLQQQLEGGGLLRQTSRTTTAVYMLYLLSLMQPKPGAPRLQPPPNQRGLCSLAADGLWNQKILFEEQDLRKHGLDGEDVSAFLNMNIFQKDINCERYYSFIHLSFQEFFAAMYYILDEGEGGAGPDQDVTRLLTEYAFSERSFLALTSRFLFGLLNEETRSHLEKSLCWKVSPHIKMDLLQWIQSKAQSDGSTLQQGSLEFFSCLYEIQEEEFIQQALSHFQVIVVSNIASKMEHMVSSFCLKRCRSAQVLHLYGATYSADGEDRARCSAGAHTLLVQLPERTVLLDAYSEHLAAALCTNPNLIELSLYRNALGSRGVKLLCQGLRHPNCKLQNLRLKRCRISSSACEDLSAALIANKNLTRMDLSGNGVGFPGMMLLCEGLRHPQCRLQMIQLRKCQLESGACQEMASVLGTNPHLVELDLTGNALEDLGLRLLCQGLRHPVCRLRTLWLKICRLTAAACDELASTLSVNQSLRELDLSLNELGDLGVLLLCEGLRHPTCKLQTLRLGICRLGSAACEGLSVVLQANHNLRELDLSFNDLGDWGLWLLAEGLQHPACRLQKLWLDSCGLTAKACENLYFTLGINQTLTDLYLTNNALGDTGVRLLCKRLSHPGCKLRVLWLFGMDLNKMTHSRLAALRVTKPYLDIGC”, the “soluble on expression in E. coli” value was “soluble”.

On to “MNEDLTNSTEYKRYGHDYAKYPRRIAEELQHYGGNSFANFFRDEGVLYKEILCDACDHLKVNYNEESATSLIEQNMLSKLLKDSLEKMSRREIKELCNELGMTNIDKVIGENKQVLIASTLTLFKAGGSHSYALAVSVADAMVRQTLGHVMWWVK”, for which the “soluble on expression in E. coli” value was “not soluble”.

On to “RAVDNAEPAALETSTRTIPTNGRTMTPVQATYWVGRQPDYALGGIATRFYMEHDITIDGPMDEWIDALRRSWNTVVQRHGMLRATVDRDGKISIADTVTEHPLPVHNADHAAEVRERLAHRTADLGTWPVHDIELTTITATTVRIHCGFDVILIDYPSIMRVLNDWGRALAGYDLGTEDTSFSDLIAQGIAEPCPSDEAYWRERAPRLLPGPLDLAEMTYDAATTPEFHRHTRTIAAQQWKQFVDNAHAHGTNASSALLAVAAHSLRHVGPRRSFTLGATFFSPDVLEHGPVGDFTRTGVVELPDTADTFAQQASAAQHELWEAFDHASVTSADIMRWRNSDTTGQALPDYPVVFTSALGHGDSTDWPGVMTWGVSQTPQVLMDLLHWESDGDLVLAWDCVDAALPENFADNAIDIAYAVIQQLTNPAVWTDPTVVADPWLRMPGPMERIGESELIDAPLRA”, for which the “soluble on expression in E. coli” value is recorded as “not soluble”.

In the case of “MITVVGGTFSKLHKGHKALLNTAIDTGNEVVIGLTSDEYVKKNKVYPAIPYSVRYRTLYNYMIKRTNKFRIRQIDDRNGNAPYEKDYEVIVVSPETYPRSLKINEIRISNGLPPLKIIRVPYVLAQDLFPISSTRIINGEID”, the “soluble on expression in E. coli” value is “not soluble”.

As to “MSLPEYDPDKYRGIDVSYVNICMRRAWLSLHEIFYVRDSYYVSDGAYLADINRKGLPISTGRSRMDNVQIHKDFIMVHEYKRGYKMIKADKMQILHYMYIIKLKENLDIKGKLHFLGSKKVVDIELNDENLNELYKSYENIDKLKDMAKPPEPVRNYFCVHGCSYSDFCWCEGHHHHHH”, the “soluble on expression in E. coli” value is recorded as “soluble”.

Turning to “MGSDKIHHHHHHMDEVESNFLTVGTLNRYLSAKFVHDPYLKQVSLTGEIFGYKISSGSAYFELRDEDESSIRAYVSPTILRGFPFDFKSGDKVNLVADVRLYGKRAYASLFIFSMQPAGLGELYLKLAELKNKLTKEGIFNRPTKELNYFPKKIAVITSKTGAVIHDISSTIGHRNPNLKIELFESSVQGDSAVKELVSAVKKADQSDADAIIIARGGGSTLDLWPFNDEQLVRLLSSLSKPVISSIGHETDVTLTDLAADYRVETPTAAANKVTPAILDYRNNLDQLTALMSVDIKQLLQKNLNRFEYLANSPALKSFDQVFFNHEQKLQNLNLRLANSFAGEFQKNIQQFANLTAKLDALSPLKVLDRGFSLTFKGDRLIKNAQQLKEKDHIKILFAKGSALAEIKEISDDRRI”, the “soluble on expression in E. coli” value is given as “not soluble”.

Turning to “MSAMNARQGILSLALKDKPALYSAYMPFVKGGGIFVPTPKRYMLGDEVFLLLTLPDSSERLPVAGKVIWTTPAGAQGNRAAGIGVQFPDGPEGEAVRNKIETLLAGLTTSDKPTHTM”, the “soluble on expression in E. coli” value is “soluble”.

For “MPDSILEAARGGRTMQKYSEMSKEQLQAVKKELDQQYAEIKAQGLALDMSRGKPSVDQLNISMDMMDVLSSSTDLRCETGVDCRNYGVMDGIPEAKRLLGEISEVDPEHIIIYGNSSLNVMFDTVSRSMTHGVMGNTPWCKLDKVKFLCPVPGYDRHFKITEFFGIEMINVPMSPEGPDMDMVEKLVSEDPAIKGIWCVPKYSNPQGYTYSEETVKRFANLKPAAPDFRIYWDNAYSVHHLYDDEKDQDFLLEILDECAKAGNPDMVYKFTSTSKISFPGSGIAALAASKANLDDIRKYITVQTIGHDKLNQLRHVKFFKDLEGVHAHMRKHAAILRPKFEMVEATLEKELGGLGIGEWTTPKGGYFISFESLDGCAKKIVAMAKEAGVVMTGAGATYPYGKDPKDSNIRIAPSFPPIEELEKAAQVFVVCVKLASVEKLLAE”, the “soluble on expression in E. coli” value is reported as “not soluble”.

Turning to “MAHHHHHHMSWLTPSGSSYFLSKVVVNSAPCAPLHLLVMHRCRVAFPCVNYRPLLWRGMLQVPSRPTICDNSLKVQLRHSRISSFKQEGYYRFARAKDIHVDESCFTLLTARGGGPGGQGSNSSSNKVEMRVNMASLSEYFDEELIGNIKANECGKALTSDETQLIISSHEHRSMYQNKEECIRRLQQMIHVASWVPPVEANPIKKPSHIVSERKNERRKKSAVKKMRQTARKGLW”, the “soluble on expression in E. coli” value was “not soluble”.

Regarding “MSTSQEISDPAQATSSAQVKWPRYLEATLGFDNHWHPAAFDHELAEGEFVAVTMLGEKVLLTRAKGEVKAIADGCAHRGVPFSKEPLCFKAGTVSCWYHGWTYDLDDGRLVDVLTSPGSPVIGKIGIKVYPVQVAQGVVFVFIGDEEPHALSEDLPPGFLDEDTHLLGIRRTVQSNWRLGVENGFDTTHIFMHRNSPWVSGNRLAFPYGFVPADRDAMQVYDENWPKGVLDRLSENYMPVFEATLDGETVLSAELTGEEKKVAAQVSVWLPGVLKVDPFPDPTLIQYEFYVPISETQHEYFQVLQRKVEGPEDVKTFEVEFEERWRDDALHGFNDDDVWAREAQQEFYGERDGWSKEQLFPPDMCIVKWRTLASERGRGVRAARVEMSHHHHHH”, the “soluble on expression in E. coli” value is “soluble”.

In the case of “MSAYIAPSQIAQRQLEYFNGKHVLVAGEVEDMFPLELTAHCESVEVFTSNYSYFRQIRHSDKIKSHFGSEFDVETQADMLLLYWPKAKAEAEYLLAMLMAKLGVNTEIVVVGENRSGVKSIEKMFKEYGPVNKYDSARRCSFYWGNCLNEPKPFNQEEWFKSYTVTLGEQSLTVKSLPGVFSHGEFDLGSRLLLETLPNLSGKVLDFGCGAGVLGAFMAKANPEIAIEMCDINAYAITSSQATLEANGLSGRVFASDIYSDTANDYRFIISNPPFHSGLDTNYNAAETLLGHAPQHLSNHGEMIIVANSFLKYPPIIENAFNNCETLNKTNKFSIYYAKKS”, the “soluble on expression in E. coli” value is “not soluble”.

On to “VTVHSTPVRRSSGPAPQSLLSARRVSALPTPASRRCSGLPPMTPKTMPRAVGSPLCVPARRRSSEPRKNSAMRTEPTRESNRKTDSRLVDVSPDRGSPPSRVPQALNFSPEESDSTFSKSTATEVAREEAKPGGDAAPSEALLVDIKLEPLAVTPDAASQPLIDLPLIDFCDTPEAHVAVGSESRPLIDLMTNTPDMNKNVAKPSPVVGQLIDLSSPLIQLSPEADKENVDSPLLKF”, for which the “soluble on expression in E. coli” value is recorded as “not soluble”.

In the case of “MSLSVKILFKNATVFPITSRPFKGDVLVSNGKVEKVGENIEDPDAEIVDLTGKFLFPGFVDAHSHIGLFEEGVGYYYSDGNEATDPVTPHVKALDGFNPQDPAIERALAGGVTSVMIVPGSANPVGGQGSVIKFRSIIVEECIVKDPAGLKMAFGENPKRVYGERKQTPSTRMGTAGVIRDYFTKVKNYMKKKELAQKEGKEFTETDLKMEVGEMVLRKKIPARMHAHRADDILTAIRIAEEFGFNLVIEHGTEAYKISKVLAEKKIPVVVGPLLTFRTKLELKDLTMETIAKLLKDGVLIALMCDHPVIPLEFATVQAATAMRYGAKEEDLLKILTVNPAKILGLEDRIGSIEPGKDADLVVWSGHPFDMKSVVERVYIDGVEVFRREGHHHHHH”, the “soluble on expression in E. coli” value was “soluble”.

In the case of “MAHHHHHHMYLYHSNKCAIKKGIPFFRNVASICFLRKAQNGEEVKRRKVFCSAKFISTISEGRETGCGQANTDQPSTPLGSYTEKSSYKDIKIVENEKEGNDAAEEINQNDIIAVDFEGTNLGKYGKVCIMQVYTEERTREGTPPQSECISREKYYIFDLLKMSVIKSVKKIIENKKTLKLVHDCREDSSALYNQLGIKFENVYDTSRAHMLLMEKNKSNDIYQVSFLQLLNDYLGIKDECLSSIKKEMYKNEKIWQVRPLSKMSIIYALKNVKYLFPLYRIFDNMLPKKIVLEKSKDFVNYCLINSRYKLPVDLAKRGNIVQAMLVSKSMLNCVFKLNSTRKGIACTPSSVAQFRDVKVGDVVLCVVSNKSIDQKILYLCKHDDVFDYWNLKERPRGKFKPSIHESATDPMIQFCDEEQPA”, the “soluble on expression in E. coli” value is given as “not soluble”.

“MFSPSTTTLFRFVECTEDQHALEILEILNDAIINSTALYDYKPRSKESMAAWFATKRQNNFPIIGAVNEVGQLLGFASWGSFRAFPAYKYTVEHSVYIHKDYRGLGLSKHLMNELIKRAVESEVHVMVGCIDATNVASIQLHQKLGFIHSGTIQQAGFKFGRWLDAAFYQLTLDTPLHPQDD”: the “soluble on expression in E. coli” value was “soluble”.

Regarding “GAMVSGQIMHAVGEEGGHVKYVCKIENYDQSTQVTWYFGVRQLENSEKYEITYEDGVAILYVKDITKLDDGTYRCKVVNDYGEDSSYAELFVKGVRE”, the “soluble on expression in E. coli” value is reported as “soluble”.

With “MSEEVGAKRWYAVHTYSGYENKVKKNLEKRVESMNMTEQIFRVVIPEEEETQVKDGKAKTTVKKTFPGYVLVELIMTDESWYVVRNTPGVTGFVGSAGAGSKPNPLLPEEVRFILKQMGLKEKTIDVELEVGEQVRIKSGPFANQVGEVQEIETDKFKLTVLVDMFGRETPVEVEFDQIEKL”, the “soluble on expression in E. coli” value is “not soluble”.

Turning to “MGSSHHHHHHSQDPDPMQSFADAKEFFQYSAGQWQSRRVTHHLPFRRAESGGSNIQVETLEKDDPRIIEICQMHDMDASLSVGGSYVTWAGTMQWDKDDENHEGSTVFALIPDADNPRQGKLLRERGYAEIVPVAGEYHLDHEDGLVLTTEYETMTIYERFWFANPDLRLRTSTVKRFGGFNTTTFCMEERIQTSPVTATAAAETNPLYAISGW”, the “soluble on expression in E. coli” value was “soluble”.
